Our source for the Signal:Noise Ratio and IC50 values is US8383350.

Assay [1] has as its target humanized 12G8 anti-IL-10 antibody. The experiment in a line: sandwich ELISA: capture 13G4 0.5 ug/mL, humanized 12G8 100 ng/mL, detection biotinylated 11F12 0.5 ug/mL. For orientation: An ELISA detects its analyte on a solid surface through an enzyme-linked reagent.
Assay [2] has the same target. Kind of assay: sandwich ELISA: capture 13G4 0.5 ug/mL, humanized 12G8 100 ng/mL, detection biotinylated 11F12 1.0 ug/mL.
The target is the same in assay [3]. The experiment in a line: sandwich ELISA: capture 13G4 0.5 ug/mL, humanized 12G8 100 ng/mL, detection biotinylated 11F12 2.0 ug/mL.
The target is the same in assay [4]. The experiment in a line: sandwich ELISA: capture 13G4 1.0 ug/mL, humanized 12G8 100 ng/mL, detection biotinylated 11F12 0.5 ug/mL.
The target is the same in assay [5]. The experiment in a line: sandwich ELISA: capture 13G4 1.0 ug/mL, humanized 12G8 100 ng/mL, detection biotinylated 11F12 1.0 ug/mL.
Assay [6] shares this target. Kind of assay: sandwich ELISA: capture 13G4 1.0 ug/mL, humanized 12G8 100 ng/mL, detection biotinylated 11F12 2.0 ug/mL.
Assay [7] has the same target. Kind of assay: sandwich ELISA: capture 13G4 2.0 ug/mL, humanized 12G8 100 ng/mL, detection biotinylated 11F12 0.5 ug/mL.
The target is the same in assay [8]. The experiment in a line: sandwich ELISA: capture 13G4 2.0 ug/mL, humanized 12G8 100 ng/mL, detection biotinylated 11F12 1.0 ug/mL.
The target is the same in assay [9]. Kind of assay: sandwich ELISA: capture 13G4 2.0 ug/mL, humanized 12G8 100 ng/mL, detection biotinylated 11F12 2.0 ug/mL.
Assay [10] shares this target. The experiment in a line: blocking ELISA: purified antibody titrated against biotinylated humanized 12G8, binding to coated human IL-10 read.

B1: JL11.11F12.C4 (antibody, V domains shown)
VH: EVQVQQSGPELVKPGASMKISCKASGYSFTGYTMNWVKQSHGKTLEWIGLINPYNGGTTYNQKFKGKATLTVDKSSSTAYMELLSLTSEDSAVYYCARRGSGYAMDYWGQGTSVTVS
VL: QIVLTQSPAIMSASLGERVAMTCTASSSVSSHYLHWYQQKPGSSPKLWIYSTSNLASGVPARFSGSGSGTSYSLTISSMEAEDAATYYCHQYHRSPWTFGGGTKLEIKR
For B1, the Signal:Noise Ratio worked out at 10 in assay [1]; 8 in [2]; 8 in assay [3]; 32 in assay [4]; 40 in assay [5]; 25 in assay [6]. Moreover, the results for the Signal:Noise Ratio in assay [7], in assay [8] and in assay [9] were 22, 7.5 and 20, respectively. Also, in assay [10], the IC50 (commonly the concentration at which inhibition is half-maximal) stood at 2 nM.

B2: JL11.13G4.B11 (antibody, V domains shown)
VH: EVKLVESGGGLVKPGGSLKLSCAASGFAFSSYDMSWVRQTPEKRLEWVASISSDGSYTYYPDTVKGRFTISRDNARNTLNLQMSSLRSEDTALYFCARQDGYYLDYWGQGTTLTVSS
VL: EIVLTQSPALMAASPGEKVTITCSVSSSISSSKLYWYQQKSETSPKPWIYGTSNLASGVPVRFSGSGSGTSYSLTISSMEAEDAATYYCQQWSSYPLTFGAGTKLELKR
Take B2: in assay [10], the IC50 worked out at 1 nM.
